According to publication PMC12990809:

How the values were obtained:
Assay in all cases: pulldown
[1] = target: T1, LmjF.32.2810 (Leishmania major) (UniProt Q4Q4Z4); settings: 20 nM protein, 1.5 uM RNA pool; 20 mM HEPES pH 7.8, 70 mM KCl, 10 mM NaCl, 10% glycerol, 2 mM DTT, 0.1 ug/uL BSA; 30 min, 4 C
T1 sequence: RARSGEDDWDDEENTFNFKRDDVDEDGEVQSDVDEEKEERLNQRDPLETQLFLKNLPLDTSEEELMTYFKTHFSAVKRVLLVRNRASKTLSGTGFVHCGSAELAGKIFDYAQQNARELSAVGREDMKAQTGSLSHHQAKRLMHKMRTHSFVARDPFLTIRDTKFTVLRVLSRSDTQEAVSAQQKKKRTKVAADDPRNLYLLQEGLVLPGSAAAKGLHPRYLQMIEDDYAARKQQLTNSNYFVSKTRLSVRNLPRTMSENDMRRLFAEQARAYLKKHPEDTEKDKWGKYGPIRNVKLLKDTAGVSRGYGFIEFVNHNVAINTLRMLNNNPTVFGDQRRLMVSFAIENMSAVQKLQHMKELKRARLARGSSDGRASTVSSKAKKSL

[2] = target: T2, SCHCODRAFT_35516 S109T;I250V (Schizophyllum commune) (UniProt A0ACF2EGB7); settings: 20 nM protein, 1.5 uM RNA pool; 20 mM HEPES pH 7.8, 70 mM KCl, 10 mM NaCl, 10% glycerol, 2 mM DTT, 0.1 ug/uL BSA; 30 min, 4 C
T2 sequence: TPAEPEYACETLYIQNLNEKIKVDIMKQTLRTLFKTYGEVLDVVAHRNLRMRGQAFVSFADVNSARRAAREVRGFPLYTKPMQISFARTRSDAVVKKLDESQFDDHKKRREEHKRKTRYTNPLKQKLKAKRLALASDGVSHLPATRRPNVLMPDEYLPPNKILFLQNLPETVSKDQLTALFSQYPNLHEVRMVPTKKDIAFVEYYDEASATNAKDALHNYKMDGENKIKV

[3] = target: T3, LmjF.29.1360 (Leishmania major) (UniProt E9ADZ5); settings: 20 nM protein, 1.5 uM RNA pool; 20 mM HEPES pH 7.8, 70 mM KCl, 10 mM NaCl, 10% glycerol, 2 mM DTT, 0.1 ug/uL BSA; 30 min, 4 C
T3 sequence: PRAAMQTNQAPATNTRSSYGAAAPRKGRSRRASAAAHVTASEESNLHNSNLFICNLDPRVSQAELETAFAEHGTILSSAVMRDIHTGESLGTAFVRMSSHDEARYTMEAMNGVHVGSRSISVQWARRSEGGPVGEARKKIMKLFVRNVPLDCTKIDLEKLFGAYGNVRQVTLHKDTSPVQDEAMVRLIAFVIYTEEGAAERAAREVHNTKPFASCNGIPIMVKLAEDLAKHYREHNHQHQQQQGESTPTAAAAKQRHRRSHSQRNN

[4] = target: T4, LmjF.30.2180 (Leishmania major) (UniProt Q4Q775); settings: 20 nM protein, 1.5 uM RNA pool; 20 mM HEPES pH 7.8, 70 mM KCl, 10 mM NaCl, 10% glycerol, 2 mM DTT, 0.1 ug/uL BSA; 30 min, 4 C
T4 sequence: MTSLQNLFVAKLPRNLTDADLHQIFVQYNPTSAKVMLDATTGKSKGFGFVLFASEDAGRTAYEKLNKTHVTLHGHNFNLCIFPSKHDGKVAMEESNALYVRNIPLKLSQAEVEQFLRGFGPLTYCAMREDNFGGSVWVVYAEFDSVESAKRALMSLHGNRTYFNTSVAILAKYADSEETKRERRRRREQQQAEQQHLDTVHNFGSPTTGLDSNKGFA

[5] = target: T5, SCHCODRAFT_72118 N130T;T236A;D255N (Schizophyllum commune) (UniProt A0ACF2F787); settings: 20 nM protein, 1.5 uM RNA pool; 20 mM HEPES pH 7.8, 70 mM KCl, 10 mM NaCl, 10% glycerol, 2 mM DTT, 0.1 ug/uL BSA; 30 min, 4 C
T5 sequence: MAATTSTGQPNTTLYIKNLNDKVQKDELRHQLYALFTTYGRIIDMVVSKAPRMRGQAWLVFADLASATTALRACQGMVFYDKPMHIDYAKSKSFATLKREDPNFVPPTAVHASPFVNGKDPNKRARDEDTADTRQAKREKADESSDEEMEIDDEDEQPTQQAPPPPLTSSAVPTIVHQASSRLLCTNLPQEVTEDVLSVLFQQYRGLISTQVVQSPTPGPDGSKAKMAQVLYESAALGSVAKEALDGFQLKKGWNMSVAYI

ELAVL1 (Homo sapiens) = ELAVL1 (Homo sapiens) (UniProt Q15717); settings: 20 nM protein, 1.5 uM RNA pool; 20 mM HEPES pH 7.8, 70 mM KCl, 10 mM NaCl, 10% glycerol, 2 mM DTT, 0.1 ug/uL BSA; 30 min, 4 C (protocol of this paper; not …); cited from earlier work
[6] = target: T6, Tb11.03.0550 L37P (Trypanosoma brucei) (UniProt Q387J8); settings: 20 nM protein, 1.5 uM RNA pool; 20 mM HEPES pH 7.8, 70 mM KCl, 10 mM NaCl, 10% glycerol, 2 mM DTT, 0.1 ug/uL BSA; 30 min, 4 C
T6 sequence: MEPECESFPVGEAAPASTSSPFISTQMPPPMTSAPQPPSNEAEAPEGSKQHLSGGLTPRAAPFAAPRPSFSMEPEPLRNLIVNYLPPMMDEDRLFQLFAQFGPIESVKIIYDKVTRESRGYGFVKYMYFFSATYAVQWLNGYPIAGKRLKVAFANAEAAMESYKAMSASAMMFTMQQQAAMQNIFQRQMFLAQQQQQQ

[7] = target: T7, LmjF.33.1450 (Leishmania major) (UniProt Q4Q442); settings: 20 nM protein, 1.5 uM RNA pool; 20 mM HEPES pH 7.8, 70 mM KCl, 10 mM NaCl, 10% glycerol, 2 mM DTT, 0.1 ug/uL BSA; 30 min, 4 C
T7 sequence: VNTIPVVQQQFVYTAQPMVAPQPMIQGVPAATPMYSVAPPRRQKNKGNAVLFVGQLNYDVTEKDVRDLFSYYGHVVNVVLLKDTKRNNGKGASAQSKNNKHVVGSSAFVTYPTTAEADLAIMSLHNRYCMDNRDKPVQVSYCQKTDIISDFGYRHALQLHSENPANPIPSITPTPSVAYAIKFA

[8] = target: T8, PK10695.1 (Cannabis sativa) (UniProt A0A803NZQ3); settings: 20 nM protein, 1.5 uM RNA pool; 20 mM HEPES pH 7.8, 70 mM KCl, 10 mM NaCl, 10% glycerol, 2 mM DTT, 0.1 ug/uL BSA; 30 min, 4 C
T8 sequence: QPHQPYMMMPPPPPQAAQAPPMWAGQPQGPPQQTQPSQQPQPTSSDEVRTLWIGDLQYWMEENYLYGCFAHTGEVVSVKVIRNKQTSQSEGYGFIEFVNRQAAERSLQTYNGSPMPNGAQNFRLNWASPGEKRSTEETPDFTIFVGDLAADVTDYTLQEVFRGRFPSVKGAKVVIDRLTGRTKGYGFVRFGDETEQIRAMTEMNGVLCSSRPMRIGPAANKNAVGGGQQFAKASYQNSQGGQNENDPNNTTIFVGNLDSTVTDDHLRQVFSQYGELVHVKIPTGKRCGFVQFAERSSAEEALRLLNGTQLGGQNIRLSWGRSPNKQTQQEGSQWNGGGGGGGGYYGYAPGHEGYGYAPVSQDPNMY

[9] = target: T9, Tb10.389.1650 (Trypanosoma brucei) (UniProt Q389D4); settings: 20 nM protein, 1.5 uM RNA pool; 20 mM HEPES pH 7.8, 70 mM KCl, 10 mM NaCl, 10% glycerol, 2 mM DTT, 0.1 ug/uL BSA; 30 min, 4 C
T9 sequence: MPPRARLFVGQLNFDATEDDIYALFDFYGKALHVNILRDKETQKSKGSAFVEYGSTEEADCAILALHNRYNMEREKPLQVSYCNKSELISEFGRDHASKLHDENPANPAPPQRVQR

Sequence of ELAVL1 (Homo sapiens) (Q15717 1-325): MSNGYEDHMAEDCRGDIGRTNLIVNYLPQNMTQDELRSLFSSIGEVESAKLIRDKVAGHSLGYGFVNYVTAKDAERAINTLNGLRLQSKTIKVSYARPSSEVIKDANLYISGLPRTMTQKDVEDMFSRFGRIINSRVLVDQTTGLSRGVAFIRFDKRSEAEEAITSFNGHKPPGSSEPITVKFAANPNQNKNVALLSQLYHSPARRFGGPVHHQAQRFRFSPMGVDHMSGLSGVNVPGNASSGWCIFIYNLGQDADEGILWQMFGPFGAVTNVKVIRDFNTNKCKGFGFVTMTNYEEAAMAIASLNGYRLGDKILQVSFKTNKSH

GUAGNA [RNAcompete motif RNCMPT00716] gave a binding signal (z-score (mean of top ten 7-mers)) [1] of 6.94.
Substance UAGCACA [RNAcompete motif RNCMPT00725] has a binding signal (z-score (mean of top ten 7-mers)) [2] of 10.8.
For UAUAGU [RNAcompete motif RNCMPT00714], the binding signal (z-score (mean of top ten 7-mers)) [3] was 20.4.
For UCAAAA [RNAcompete motif RNCMPT00715], the binding signal (z-score (mean of top ten 7-mers)) [4] was 22.8.
UGCACA [RNAcompete motif RNCMPT00723] showed a binding signal (z-score (mean of top ten 7-mers)) [5] of 8.86.
In the case of UUAUUUU [RNAcompete motif RNCMPT00032], the binding signal (z-score (mean of top ten 7-mers)) (ELAVL1 (Homo sapiens)) is listed as 15.
UUAUUUU [RNAcompete motif RNCMPT00749] showed a binding signal (z-score (mean of top ten 7-mers)) [6] of 13.9.
In the case of UUGCAGU [RNAcompete motif RNCMPT00717], the binding signal (z-score (mean of top ten 7-mers)) [7] is reported as 21.8.
In the case of UUUAUUUU [RNAcompete motif RNCMPT00741], the binding signal (z-score (mean of top ten 7-mers)) [8] is reported as 10.2.
UUUGCU [RNAcompete motif RNCMPT00732] showed a binding signal (z-score (mean of top ten 7-mers)) [9] of 18.9.
